Key:
Assay in all cases: cell-based or functional assay
[1] = molecular target: HIV-1 Env of KER2008.12 (HIV-1)
[2] = molecular target: HIV-1 Env of CAP244.D3 (HIV-1)
[3] = molecular target: HIV-1 Env of CAAN.A2 (HIV-1)
[4] = molecular target: HIV-1 Env of THRO.18 (HIV-1)
[5] = molecular target: HIV-1 Env of ZM135.10a (HIV-1)
[6] = molecular target: HIV-1 Env of CAP210.E8 (HIV-1)
[7] = molecular target: HIV-1 Env of UG037.8 (HIV-1)
[8] = molecular target: HIV-1 Env of RHPA.7 (HIV-1)
[9] = molecular target: HIV-1 Env of QH0692.42 (HIV-1)
[10] = molecular target: HIV-1 Env of CAP256.SU (HIV-1)
[11] = molecular target: HIV-1 Env of ZM233.6 (HIV-1)
[12] = molecular target: HIV-1 Env of MB539.2B7 (HIV-1)
[13] = molecular target: HIV-1 Env of CAP45.G3 (HIV-1)
[14] = molecular target: HIV-1 Env of REJO.67 (HIV-1)
[15] = molecular target: HIV-1 Env of 3016.V5.c36 (HIV-1)
[16] = molecular target: HIV-1 Env of Q461.e2 (HIV-1)
[17] = molecular target: HIV-1 Env of BG505.w6m (HIV-1)
[18] = molecular target: HIV-1 Env of Q842.d12 (HIV-1)
[19] = molecular target: HIV-1 Env of AC10.29 (HIV-1)
[20] = molecular target: HIV-1 Env of TRO.11 (HIV-1)
[21] = molecular target: HIV-1 Env of ZM249.1 (HIV-1)
[22] = molecular target: HIV-1 Env of PVO.04 (HIV-1)
[23] = molecular target: HIV-1 Env of CM244.ec1 (HIV-1)
[24] = molecular target: HIV-1 Env of ZM197.7 (HIV-1)
[25] = molecular target: HIV-1 Env of SC422.8 (HIV-1)
[26] = molecular target: HIV-1 Env of DU422.01 (HIV-1)
[27] = molecular target: HIV-1 Env of RW020.2 (HIV-1)
[28] = molecular target: HIV-1 Env of 0260.v5.c36 (HIV-1)
[29] = molecular target: HIV-1 Env of Q259.d2.17 (HIV-1)
[30] = molecular target: HIV-1 Env of CNE3 (HIV-1)
[31] = molecular target: HIV-1 Env of 6405.v4.c34 (HIV-1)
[32] = molecular target: HIV-1 Env of CAP256.PI (HIV-1)
[33] = molecular target: HIV-1 Env of Q769.d22 (HIV-1)
[34] = molecular target: HIV-1 Env of MB201 (HIV-1)
[35] = molecular target: HIV-1 Env of DU172.17 (HIV-1)
[36] = molecular target: HIV-1 Env of TRJO.58 (HIV-1)
[37] = molecular target: HIV-1 Env of 96ZM651.02 (HIV-1)
[38] = molecular target: HIV-1 Env of 6535.3 (HIV-1)
[39] = molecular target: HIV-1 Env of ZM214.15 (HIV-1)
[40] = molecular target: HIV-1 Env of Q23.17 (HIV-1)
[41] = molecular target: HIV-1 Env of WITO.33 (HIV-1)
[42] = molecular target: HIV-1 Env of TH976.17 (HIV-1)
[43] = molecular target: HIV-1 Env of C1080.c3 (HIV-1)
[44] = molecular target: HIV-1 Env of DU156.12 (HIV-1)
[45] = molecular target: HIV-1 Env of KER2018.11 (HIV-1)
[46] = molecular target: HIV-1 Env of ZM109.4 (HIV-1)
[47] = molecular target: HIV-1 Env of ZM53.12 (HIV-1)
[48] = molecular target: HIV-1 Env of Q168.a2 (HIV-1)

## CAP256-VRC26.29 (antibody)
[1]
  IC50 (neutralization, TZM-bl): 0.684 mg/L
[2]
  IC50 (neutralization, TZM-bl): > 50 mg/L
[3]
  IC50 (neutralization, TZM-bl): > 50 mg/L
[4]
  IC50 (neutralization, TZM-bl): > 50 mg/L
[5]
  IC50 (neutralization, TZM-bl): > 50 mg/L
[6]
  IC50 (neutralization, TZM-bl): < 0.0006 mg/L
[7]
  IC50 (neutralization, TZM-bl): > 50 mg/L
[8]
  IC50 (neutralization, TZM-bl): > 50 mg/L
[9]
  IC50 (neutralization, TZM-bl): > 50 mg/L
[10]
  IC50 (neutralization, TZM-bl): < 0.0006 mg/L
[11]
  IC50 (neutralization, TZM-bl): 0.003 mg/L
[12]
  IC50 (neutralization, TZM-bl): 13.3 mg/L
[13]
  IC50 (neutralization, TZM-bl): 0.076 mg/L
[14]
  IC50 (neutralization, TZM-bl): > 50 mg/L
[15]
  IC50 (neutralization, TZM-bl): 0.012 mg/L
[16]
  IC50 (neutralization, TZM-bl): 2 mg/L
[17]
  IC50 (neutralization, TZM-bl): 0.046 mg/L
[18]
  IC50 (neutralization, TZM-bl): 1.69 mg/L
[19]
  IC50 (neutralization, TZM-bl): 20.4 mg/L
[20]
  IC50 (neutralization, TZM-bl): > 50 mg/L
[21]
  IC50 (neutralization, TZM-bl): 0.093 mg/L
[22]
  IC50 (neutralization, TZM-bl): 4 mg/L
[23]
  IC50 (neutralization, TZM-bl): 1.13 mg/L
[24]
  IC50 (neutralization, TZM-bl): 0.136 mg/L
[25]
  IC50 (neutralization, TZM-bl): > 50 mg/L
[26]
  IC50 (neutralization, TZM-bl): 0.072 mg/L
[27]
  IC50 (neutralization, TZM-bl): > 50 mg/L
[28]
  IC50 (neutralization, TZM-bl): > 50 mg/L
[29]
  IC50 (neutralization, TZM-bl): 0.019 mg/L
[30]
  IC50 (neutralization, TZM-bl): > 50 mg/L
[31]
  IC50 (neutralization, TZM-bl): > 50 mg/L
[32]
  IC50 (neutralization, TZM-bl): > 50 mg/L
[33]
  IC50 (neutralization, TZM-bl): > 50 mg/L
[34]
  IC50 (neutralization, TZM-bl): > 50 mg/L
[35]
  IC50 (neutralization, TZM-bl): > 50 mg/L
[36]
  IC50 (neutralization, TZM-bl): > 50 mg/L
[37]
  IC50 (neutralization, TZM-bl): > 50 mg/L
[38]
  IC50 (neutralization, TZM-bl): > 50 mg/L
[39]
  IC50 (neutralization, TZM-bl): 13.6 mg/L
[40]
  IC50 (neutralization, TZM-bl): 0.023 mg/L
[41]
  IC50 (neutralization, TZM-bl): > 50 mg/L
[42]
  IC50 (neutralization, TZM-bl): > 50 mg/L
[43]
  IC50 (neutralization, TZM-bl): 0.009 mg/L
[44]
  IC50 (neutralization, TZM-bl): 0.136 mg/L
[45]
  IC50 (neutralization, TZM-bl): < 0.0006 mg/L
[46]
  IC50 (neutralization, TZM-bl): > 50 mg/L
[47]
  IC50 (neutralization, TZM-bl): 0.001 mg/L
[48]
  IC50 (neutralization, TZM-bl): 0.007 mg/L

## CAP256-VRC26.32 (antibody)
[1]
  IC50 (neutralization, TZM-bl): > 50 mg/L
[2]
  IC50 (neutralization, TZM-bl): > 50 mg/L
[3]
  IC50 (neutralization, TZM-bl): > 50 mg/L
[4]
  IC50 (neutralization, TZM-bl): > 50 mg/L
[5]
  IC50 (neutralization, TZM-bl): > 50 mg/L
[6]
  IC50 (neutralization, TZM-bl): 0.008 mg/L
[7]
  IC50 (neutralization, TZM-bl): > 50 mg/L
[8]
  IC50 (neutralization, TZM-bl): > 50 mg/L
[9]
  IC50 (neutralization, TZM-bl): > 50 mg/L
[10]
  IC50 (neutralization, TZM-bl): 0.004 mg/L
[11]
  IC50 (neutralization, TZM-bl): 0.015 mg/L
[12]
  IC50 (neutralization, TZM-bl): > 50 mg/L
[13]
  IC50 (neutralization, TZM-bl): > 50 mg/L
[14]
  IC50 (neutralization, TZM-bl): > 50 mg/L
[15]
  IC50 (neutralization, TZM-bl): 0.284 mg/L
[16]
  IC50 (neutralization, TZM-bl): > 50 mg/L
[17]
  IC50 (neutralization, TZM-bl): > 50 mg/L
[18]
  IC50 (neutralization, TZM-bl): > 50 mg/L
[19]
  IC50 (neutralization, TZM-bl): > 50 mg/L
[20]
  IC50 (neutralization, TZM-bl): > 50 mg/L
[21]
  IC50 (neutralization, TZM-bl): 16.8 mg/L
[22]
  IC50 (neutralization, TZM-bl): 17.8 mg/L
[23]
  IC50 (neutralization, TZM-bl): 0.561 mg/L
[24]
  IC50 (neutralization, TZM-bl): 0.097 mg/L
[25]
  IC50 (neutralization, TZM-bl): > 50 mg/L
[26]
  IC50 (neutralization, TZM-bl): > 50 mg/L
[27]
  IC50 (neutralization, TZM-bl): > 50 mg/L
[28]
  IC50 (neutralization, TZM-bl): > 50 mg/L
[29]
  IC50 (neutralization, TZM-bl): > 50 mg/L
[30]
  IC50 (neutralization, TZM-bl): > 50 mg/L
[31]
  IC50 (neutralization, TZM-bl): > 50 mg/L
[32]
  IC50 (neutralization, TZM-bl): > 50 mg/L
[33]
  IC50 (neutralization, TZM-bl): > 50 mg/L
[34]
  IC50 (neutralization, TZM-bl): > 50 mg/L
[35]
  IC50 (neutralization, TZM-bl): > 50 mg/L
[36]
  IC50 (neutralization, TZM-bl): > 50 mg/L
[37]
  IC50 (neutralization, TZM-bl): > 50 mg/L
[38]
  IC50 (neutralization, TZM-bl): > 50 mg/L
[39]
  IC50 (neutralization, TZM-bl): > 50 mg/L
[40]
  IC50 (neutralization, TZM-bl): > 50 mg/L
[41]
  IC50 (neutralization, TZM-bl): > 50 mg/L
[42]
  IC50 (neutralization, TZM-bl): > 50 mg/L
[43]
  IC50 (neutralization, TZM-bl): > 50 mg/L
[44]
  IC50 (neutralization, TZM-bl): > 50 mg/L
[45]
  IC50 (neutralization, TZM-bl): 0.032 mg/L
[46]
  IC50 (neutralization, TZM-bl): > 50 mg/L
[47]
  IC50 (neutralization, TZM-bl): 0.011 mg/L
[48]
  IC50 (neutralization, TZM-bl): > 50 mg/L
